Measured values taken from article doi:10.1101/2020.03.02.974154 (bioRxiv, 2020).

Target: the molecule itself
Assay: cryo-EM structure

B1: full-length chicken acid-sensing ion channel 1a (cASIC1a) (natural protein, Gallus gallus, UniProt Q1XA76 1-527, looked up)
chain: MMDLKVDEEEVDSGQPVSIQAFASSSTLHGISHIFSYERLSLKRVVWALCFMGSLALLALVCTNRIQYYFLYPHVTKLDEVAATRLTFPAVTFCNLNEFRFSRVTKNDLYHAGELLALLNNRYEIPDTQTADEKQLEILQDKANFRNFKPKPFNMLEFYDRAGHDIREMLLSCFFRGEQCSPEDFKVVFTRYGKCYTFNAGQDGKPRLITMKGGTGNGLEIMLDIQQDEYLPVWGETDETSFEAGIKVQIHSQDEPPLIDQLGFGVAPGFQTFVSCQEQRLIYLPPPWGDCKATTGDSEFYDTYSITACRIDCETRYLVENCNCRMVHMPGDAPYCTPEQYKECADPALDFLVEKDNEYCVCEMPCNVTRYGKELSMVKIPSKASAKYLAKKYNKSEQYIGENILVLDIFFEALNYETIEQKKAYEVAGLLGDIGGQMGLFIGASILTVLELFDYAYEVIKHRLCRRGKCRKNHKRNNTDKGVALSMDDVKRHNPCESLRGHPAGMTYAANILPHHPARGTFEDFTC
  stoichiometry N: 3
